Molecular target: T1, glycosylated recombinant human complement C2 with a N-terminal his-tag
T1 chain: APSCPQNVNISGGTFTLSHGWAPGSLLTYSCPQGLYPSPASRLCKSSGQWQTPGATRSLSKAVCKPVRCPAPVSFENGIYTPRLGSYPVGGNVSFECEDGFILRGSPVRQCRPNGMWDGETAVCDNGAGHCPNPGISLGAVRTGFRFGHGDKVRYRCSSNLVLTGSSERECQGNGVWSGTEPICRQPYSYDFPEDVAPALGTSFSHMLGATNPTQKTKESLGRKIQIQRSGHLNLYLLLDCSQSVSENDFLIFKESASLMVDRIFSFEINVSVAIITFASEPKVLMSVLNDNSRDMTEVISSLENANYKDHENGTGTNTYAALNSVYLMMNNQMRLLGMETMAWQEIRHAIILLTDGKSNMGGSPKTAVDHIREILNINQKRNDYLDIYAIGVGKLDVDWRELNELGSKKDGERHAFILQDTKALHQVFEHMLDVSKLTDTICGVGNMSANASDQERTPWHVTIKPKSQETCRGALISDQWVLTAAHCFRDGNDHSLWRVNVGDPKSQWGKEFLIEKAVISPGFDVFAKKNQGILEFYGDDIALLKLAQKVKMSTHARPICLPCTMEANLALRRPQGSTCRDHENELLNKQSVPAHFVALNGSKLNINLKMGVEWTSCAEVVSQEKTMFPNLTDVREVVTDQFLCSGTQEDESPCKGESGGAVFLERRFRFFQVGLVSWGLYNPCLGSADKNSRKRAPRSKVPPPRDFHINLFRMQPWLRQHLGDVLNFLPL

B1: plasma-derived activated human C1s (Calbiochem) (protein)
chain: EPTMYGEILSPNYPQAYPSEVEKSWDIEVPEGYGIHLYFTHLDIELSENCAYDSVQIISGDTEEGRLCGQRSSNNPHSPIVEEFQVPYNKLQVIFKSDFSNEERFTGFAAYYVATDINECTDFVDVPCSHFCNNFIGGYFCSCPPEYFLHDDMKNCGVNCSGDVFTALIGEIASPNYPKPYPENSRCEYQIRLEKGFQVVVTLRREDFDVEAADSAGNCLDSLVFVAGDRQFGPYCGHGFPGPLNIETKSNALDIIFQTDLTGQKKGWKLRYHGDPMPCPKEDTPNSVWEPAKAKYVFRDVVQITCLDGFEVVEGRVGATSFYSTCQSNGKWSNSKLKCQPVDCGIPESIENGKVEDPESTLFGSVIRYTCEEPYYYMENGGGGEYHCAGNGSWVNEVLGPELPKCVPVCGVPREPFEEKQRIIGGSDADIKNFPWQVFFDNPWAGGALINEYWVLTAAHVVEGNREPTMYVGSTSVQTSRLAKSKMLTPEHVFIHPGWKLLEVPEGRTNFDNDIALVRLKDPVKMGPTVSPICLPGTSSDYNLMDGDLGLISGWGRTEKRDRAVRLKAARLPVAPLRKCKEVKVEKPTADAEAYVFTPNMICAGGEKGMDSCKGDSGGAFAVQDPNDKTKFYAAGLVSWGPQCGTYGLYTRVKNYVDWIMKTMQENSTPRED
  cleavage of recombinant C2 by C1s (SDS-PAGE, C1s-to-C2 ratio of 1:25): C1s cleaved recombinant C2 into subcomponents C2a (≈70 kDa) and C2b (≈30 kDa)
